Experimental data published in patent US10689429B2, “Double-acylated GLP-1 compounds” (Novo Nordisk A/S, priority 2014, dated 2020).
*1 amine or outer side, *2 acyl side, *3 side chain or, on linkers, in order; H or OH if unused. Where a SMILES comes first, the peptide text is derived from it. Where no end group is shown, it is not given here. Side-chain parts run from the residue outwards. [ ]: non-standard residue; d: D form. The star is where a group is joined. Dodecanoyl(12-OPh(4-COOH)) = O=C(O)c1ccc(OCCCCCCCCCCCC(=O)*)cc1; 9‑(3-carboxyphenoxy)nonanoyl = O=C(O)c1cccc(OCCCCCCCCC(=O)*)c1; Undecanoyl(11-OPh(4-COOH)) = O=C(O)c1ccc(OCCCCCCCCCCC(=O)*)cc1; Decanoyl(10-(4-HOOC-PhO)) = O=C(O)c1ccc(OCCCCCCCCCC(=O)*)cc1; Decanoyl(10-O(3-COOH-Ph)) = O=C(O)c1cccc(OCCCCCCCCCC(=O)*)c1; γGlu = O=C(O)[C@H](CCC(=O)[*:2])N[*:1]; C14 diacid = O=C(O)CCCCCCCCCCCCC(=O)*; AEEA = NCCOCCOCC(=O)O; Aib = CC(C)(N)C(=O)O

What was measured:
[1] = Pharmacokinetic study in mini pigs after i.v. administration; format: in vivo; conditions: female, Göttingen, pig, plasma, iv, 2 nmol/kg; read-out: Minipig iv PK, t½ (converted)
Experimental: The purpose of this study is to determine the protraction in vivo of the GLP-1 derivatives after i.v. administration to mini pigs, i.e. the prolongation of their time in the body and thereby their time of action. This was done in pharmacokinetic (PK) studies, where the terminal half-life of the derivative in question was determined. By terminal half-life is generally meant the period of time it takes to halve a certain plasma concentration, measured after the initial distribution phase.
Female Göttingen mini pigs obtained from Ellegaard Göttingen Minipigs (Dalmose, Denmark) at approximately 5 months of age and weighing approximately 10 kg were used in the studies. The mini pigs were housed in pens with straw as bedding, four to six together in each pen and fed restrictedly once or twice daily with Altromin 9023 mini pig diet (Chr. Petersen A/S, DK-4100 Ringsted). The pigs were used for repeated pharmacokinetic studies with a suitable wash-out period between successive GLP-1 derivative dosings. An acclimatisation period of 1 week was allowed during which time the mini pigs were trained to be fixated on the back for blood sampling and in slings for i.v. dosing. All handling, dosing and blood sampling of the animals was performed by trained and skilled staff.
The GLP-1 derivatives were dissolved in 50 mM sodium phosphate, 70 mM sodium chloride, 0.05% tween 80, pH 7.4 to a concentration of approximately 20 nmol/ml. Intravenous injections (the volume corresponding to usually 2 nmol/kg, for example 0.1 ml/kg) of the compounds were given as intravenous injections via a Venflon inserted in an ear vein, while the animals were placed un-anaesthetised in a sling. The dose volume was 0.1 ml/kg, and blood was sampled at predefined time points for up till 13 days post dosing (samples were taken with a syringe from a jugular vein). Blood samples (for example 0.8 ml) were collected in EDTA buffer (8 mM) and then centrifuged at 4° C. and 2000 G for 10 minutes.
Individual plasma concentration-time profiles were analysed by a non-compartmental model in WinNonlin v. […] 6.2 or 6.3 (Pharsight Inc., Mountain View, Calif., USA), or other relevant software for PK analysis, and the resulting terminal half-lives determined.

human GLP-1 receptor [2] = target: T1, human GLP-1 receptor (Homo sapiens, UniProt P43220); test: In vitro potency, CRE luciferase reporter gene assay in BHK cells expressing the human GLP-1 receptor; format: cell-based; conditions: average of duplicates;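 further: firefly luciferase luminescence read after 3 h incubation at 37 °C, compounds tested in an eight-point series from 0.01 pM to 100 nM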
T1 construct: expressed in transfected cells; host or cells: membranes from BHK cells, parent line BHKTS13, clone FCW467-12A
Target sequence in this assay (P43220 24-463): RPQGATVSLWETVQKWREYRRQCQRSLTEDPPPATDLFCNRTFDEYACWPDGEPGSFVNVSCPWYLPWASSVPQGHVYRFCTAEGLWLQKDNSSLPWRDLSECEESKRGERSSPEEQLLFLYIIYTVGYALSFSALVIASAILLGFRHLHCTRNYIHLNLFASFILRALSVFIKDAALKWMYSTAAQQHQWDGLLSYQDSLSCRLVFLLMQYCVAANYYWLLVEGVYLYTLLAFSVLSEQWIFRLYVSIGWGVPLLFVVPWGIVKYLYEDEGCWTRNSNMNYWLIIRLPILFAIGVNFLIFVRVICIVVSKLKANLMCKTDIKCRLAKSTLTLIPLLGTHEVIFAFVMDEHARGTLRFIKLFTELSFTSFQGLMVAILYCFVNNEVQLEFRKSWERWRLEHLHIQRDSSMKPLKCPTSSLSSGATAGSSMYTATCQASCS
Experimental: The in vitro potency is the measure of human GLP-1 receptor activation in a whole cell assay.
In vitro potency was determined by measuring the response of the human GLP-1 receptor in a reporter gene assay. The assay was performed in a stably transfected BHK cell line that expresses the human GLP-1 receptor and contains the DNA for the cAMP response element (CRE) coupled to a promoter and the gene for firefly luciferase (CRE luciferase). When the human GLP-1 receptor is activated it results in the production of cAMP, which in turn results in the luciferase protein being expressed. When assay incubation is completed the luciferase substrate (luciferin) is added and the enzyme converts luciferin to oxyluciferin to produce bioluminescence. The luminescence is measured as the readout for the assay.
An increase of the in vitro potency, EC50 value, in the presence of serum albumin would indicate an affinity to serum albumin and represents a method to predict a protracted pharmacokinetic profile of the test substance in animal models.
The cells were cultured at 5% CO2 in Cell Culture Medium. They were aliquoted and stored in liquid nitrogen. Before each assay an aliquot is taken up and washed twice in PBS before being suspended at the desired concentration in the assay specific buffer. For 96-well plates the suspension was made to give a final concentration of 5×10^3 cells/well.
Assay Medium consisted of DMEM w/o phenol red, 10 mM Hepes and 1× Glutamax. The 1% Assay Buffer consisted of 2% ovalbumin, 0.2% Pluronic F-68 and 2% HSA in Assay Medium. The 0% Assay Buffer consisted of 2% ovalbumin and 0.2% Pluronic F-68 in Assay Medium.
1) Cell stocks were thawed in a 37° C. water bath.
2) Cells were washed three times in PBS.
3) The cells were counted and adjusted to 5×10^3 cells/50 μl (1×10^5 cells/ml) in Assay Medium. A 50 μl aliquot of cells was transferred to each well in the assay plate.
4) Stocks of the test compounds and reference compounds were diluted to a concentration of 0.2 pM in 0% Assay Buffer for the 0% HSA CRE luciferase assay and 1% Assay Buffer for the 1% HSA CRE luciferase assay. […] Compounds were tested at the following final concentrations: 1×10^−7 M, 1×10^−8 M; 1×10^−9 M, 1×10^−10 M, 1×10^−11 M, 1×10^−12 M, 1×10^−13 M, and 1×10^−14 M. 6) The assay plate was incubated for 3 h in a 5% CO2 incubator at 37° C. […] 8) A 100 μl aliquot of steadylite plus reagent was added to each well of the assay plate (reagent was light sensitive). 9) Each assay plate was covered with aluminum foil to protect it from light and shaken for 30 min at room temperature. 10) Each assay plate was read in a Packard TopCount NXT instrument. Calculations and Results
The data from the TopCount instrument were transferred to GraphPad Prism software. The software performs a non-linear regression (log(agonist) vs response).
A minimum of two replicates was measured for each sample on separate assay plates. The reported values are averages of the duplicates. For some examples more than one assay was run and in this case the data reported are the averages of the averaged duplicates.

human GLP-1 receptor [3] = target: T1, human GLP-1 receptor; test: GLP-1 receptor binding, competitive 125I-GLP-1 SPA binding assay on isolated membranes; conditions: IC50/nM (low HSA), low HSA (max. 0.001% final assay concentration)
human GLP-1 receptor [4] = target: T2, human GLP-1 receptor (human, UniProt P43220); test: displacement of [125I]-GLP-1-(7-36)NH2 from membranes with human GLP-1 receptor, SPA, high HSA (2.0%)
Experimental: Each derivative is added in a series of concentrations to isolated membranes containing the human GLP-1 receptor and displacement of the labelled ligand is monitored. The receptor binding is reported as the concentration at which half of the labelled ligand is displaced from the receptor, the $IC50$ value.
For the receptor binding assay in the presence of low HSA (0.001%) 50 μl of the assay buffer was added to each well of an assay plate. […] For the receptor binding assay in the presence of high HSA (2.0%) 50 μl of the 8% albumin stock was added to each well of an assay plate. […] Cell membrane aliquots were thawed and diluted to their working concentration. Fifty μl were added to each well in the assay plate. […] WGA SPA beads were suspended in assay buffer at 20 mg/ml. The suspension was diluted to 10 mg/ml in assay buffer just prior to addition to the assay plate. Fifty μl were added to each well in the assay plate. […] A 25 μl aliquot was reserved for measuring total counts/well. […] The assay plate was incubated for 2 h at 30° C. […] The assay plate was centrifuged for 10 min. […] The assay plate was read in a Packard TopCount NXT instrument.

human GLP-1 receptor [5] = target: T2, human GLP-1 receptor
Target sequence in this assay (P43220 24-463): as above

[6] = EC50/pM (1% HSA), 1% HSA final assay concentration

Molecule	half-life [1]	EC50 (human GLP-1 receptor [2]; EC50/pM (0% HSA), 0% HSA)	EC50 (human GLP-1 receptor [2]; [6])	IC50 (human GLP-1 receptor [3])	IC50 (human GLP-1 receptor [4])	EC50/pM (0% HSA) (human GLP-1 receptor [5])	EC50/pM (1% HSA) (human GLP-1 receptor [5])
CC[C@H](C)[C@H](NC(=O)[C@H](Cc1ccccc1)NC(=O)[C@H](CCC(=O)O)NC(=O)[C@H](CCCNC(=N)N)NC(=O)[C@H](C)NC(=O)[C@H](C)NC(=O)[C@H](CCC(N)=O)NC(=O)[C@H](CCC(=O)O)NC(=O)[C@H](CCC(=O)O)NC(=O)[C@H](CC(C)C)NC(=O)[C@H](Cc1ccc(O)cc1)NC(=O)[C@H](CO)NC(=O)[C@H](CO)NC(=O)[C@@H](NC(=O)[C@H](CC(=O)O)NC(=O)[C@H](CO)NC(=O)[C@@H](NC(=O)[C@H](Cc1ccccc1)NC(=O)[C@@H](NC(=O)CNC(=O)[C@H](CCC(=O)O)NC(=O)C(C)(C)NC(=O)[C@@H](N)Cc1c[nH]cn1)[C@@H](C)O)[C@@H](C)O)C(C)C)C(=O)N[C@@H](C)C(=O)N[C@@H](Cc1c[nH]c2ccccc12)C(=O)N[C@@H](CC(C)C)C(=O)N[C@H](C(=O)N[C@@H](CCC(N)=O)C(=O)NCC(=O)N[C@@H](CCCCNC(=O)COCCOCCNC(=O)COCCOCCNC(=O)CC[C@H](NC(=O)CCCCCCCCCCOc1ccc(C(=O)O)cc1)C(=O)O)C(=O)N[C@@H](CCCCNC(=O)COCCOCCNC(=O)COCCOCCNC(=O)CC[C@H](NC(=O)CCCCCCCCCCOc1ccc(C(=O)O)cc1)C(=O)O)C(=O)O)C(C)C [Example 7] (H-H[Aib]EGTFTSDVSSYLEEQAAREFIAWLVQGK([AEEA-AEEA-γGlu-Undecanoyl(11-OPh(4-COOH))])K([AEEA-AEEA-γGlu-Undecanoyl(11-OPh(4-COOH))])-OH; N-terminus and C-terminus assumed)	107 h	1.5 pM	143 pM	0.47 nM			
CC[C@H](C)[C@H](NC(=O)[C@H](Cc1ccccc1)NC(=O)[C@H](CCC(=O)O)NC(=O)[C@H](CCCNC(=N)N)NC(=O)[C@H](C)NC(=O)[C@H](C)NC(=O)[C@H](CCC(N)=O)NC(=O)[C@H](CCC(=O)O)NC(=O)[C@H](CCC(=O)O)NC(=O)[C@H](CC(C)C)NC(=O)[C@H](Cc1ccc(O)cc1)NC(=O)[C@H](CO)NC(=O)[C@H](CO)NC(=O)[C@@H](NC(=O)[C@H](CC(=O)O)NC(=O)[C@H](CO)NC(=O)[C@@H](NC(=O)[C@H](Cc1ccccc1)NC(=O)[C@@H](NC(=O)CNC(=O)[C@H](CCC(=O)O)NC(=O)C(C)(C)NC(=O)[C@@H](N)Cc1c[nH]cn1)[C@@H](C)O)[C@@H](C)O)C(C)C)C(=O)N[C@@H](C)C(=O)N[C@@H](Cc1c[nH]c2ccccc12)C(=O)N[C@@H](CC(C)C)C(=O)N[C@H](C(=O)N[C@@H](CCCNC(=N)N)C(=O)NCC(=O)N[C@@H](CCCCNC(=O)COCCOCCNC(=O)COCCOCCNC(=O)CC[C@H](NC(=O)CCCCCCCCOc1cccc(C(=O)O)c1)C(=O)O)C(=O)N[C@@H](CCCCNC(=O)COCCOCCNC(=O)COCCOCCNC(=O)CC[C@H](NC(=O)CCCCCCCCOc1cccc(C(=O)O)c1)C(=O)O)C(=O)O)C(C)C [Example 23, N{Epsilon-36}-[2-[2-[2-[[2-[2-[2-[[(4S)-4-carboxy-4-[9-(3-carboxyphenoxy)nonanoylamino]butanoyl]amino]ethoxy]ethoxy]acetyl]amino]ethoxy]ethoxy]acetyl], N{Epsilon-37}-[2-[2-[2-[[2-[2-[2-[[(4S)-4-carboxy-4-[9-(3-carboxyphenoxy)nonanoylamino]butanoyl]amino]ethoxy]ethoxy]acetyl]amino]ethoxy]ethoxy]acetyl]-[Aib8,Glu22,Arg26,Arg34,Lys36,Lys37]-GLP-1-(7-37)-peptide]		7.7 pM	15 pM	0.29 nM			
CC[C@H](C)[C@H](NC(=O)[C@H](Cc1ccccc1)NC(=O)[C@H](CCC(=O)O)NC(=O)[C@H](CCCNC(=N)N)NC(=O)[C@H](C)NC(=O)[C@H](C)NC(=O)[C@H](CCC(N)=O)NC(=O)[C@H](CCC(=O)O)NC(=O)[C@H](CCC(=O)O)NC(=O)[C@H](CC(C)C)NC(=O)[C@H](Cc1ccc(O)cc1)NC(=O)[C@H](CO)NC(=O)[C@H](CO)NC(=O)[C@@H](NC(=O)[C@H](CC(=O)O)NC(=O)[C@H](CO)NC(=O)[C@@H](NC(=O)[C@H](Cc1ccccc1)NC(=O)[C@@H](NC(=O)CNC(=O)[C@H](CCC(=O)O)NC(=O)C(C)(C)NC(=O)[C@@H](N)Cc1c[nH]cn1)[C@@H](C)O)[C@@H](C)O)C(C)C)C(=O)N[C@@H](C)C(=O)N[C@@H](Cc1c[nH]c2ccccc12)C(=O)N[C@@H](CC(C)C)C(=O)N[C@H](C(=O)N[C@@H](CCCNC(=N)N)C(=O)NCC(=O)N[C@@H](CCCCNC(=O)COCCOCCNC(=O)COCCOCCNC(=O)CC[C@H](NC(=O)CCCCCCCCCCCOc1ccc(C(=O)O)cc1)C(=O)O)C(=O)N[C@@H](CCCCNC(=O)COCCOCCNC(=O)COCCOCCNC(=O)CC[C@H](NC(=O)CCCCCCCCCCCOc1ccc(C(=O)O)cc1)C(=O)O)C(=O)O)C(C)C [Example 26, N{Epsilon-36}-[2-[2-[2-[[2-[2-[2-[[(4S)-4-carboxy-4-[12-(4-carboxyphenoxy)dodecanoylamino]butanoyl]amino]ethoxy]ethoxy]acetyl]amino]ethoxy]ethoxy]acetyl], N{Epsilon-37}-[2-[2-[2-[[2-[2-[2-[[(4S)-4-carboxy-4-[12-(4-carboxyphenoxy)dodecanoylamino]butanoyl]amino]ethoxy]ethoxy]acetyl]amino]ethoxy]ethoxy]acetyl]-[Aib8,Glu22,Arg26,Arg34,Lys36,Lys37]-GLP-1-(7-37)-peptide]		1.5 pM	124 pM	0.29 nM			
H[Aib]EGTFTSDVSSYLEEQAAREFIAWLVRGK([AEEA-AEEA-γGlu-Decanoyl(10-(4-HOOC-PhO))])K([AEEA-AEEA-γGlu-Decanoyl(10-(4-HOOC-PhO))]) [GLP-1 derivative of Example 3]					77 nM	1.2 pM	28 pM
H[Aib]EGTFTSDVSSYLEEQAAREFIAWLVRGK([AEEA-AEEA-γGlu-9‑(3-carboxyphenoxy)nonanoyl])K([AEEA-AEEA-γGlu-9‑(3-carboxyphenoxy)nonanoyl]) [GLP-1 derivative of Example 23]					193 nM	7.7 pM	15 pM
H[Aib]EGTFTSDVSSYLEEQAAREFIAWLVQGK([AEEA-AEEA-γGlu-Undecanoyl(11-OPh(4-COOH))])K([AEEA-AEEA-γGlu-Undecanoyl(11-OPh(4-COOH))]) [GLP-1 derivative of Example 7]					233 nM	1.5 pM	143 pM
H[Aib]EGTFTSDVSSYLEEQAAREFIAWLVRGK([AEEA-γGlu-γGlu-C14 diacid])K([AEEA-γGlu-γGlu-C14 diacid]) [GLP-1 derivative of Example 13]					201 nM	1.3 pM	18 pM
H[Aib]EGTFTSDVSSYLEEQAAREFIEWLVRGK([AEEA-AEEA-AEEA-AEEA-γGlu-Decanoyl(10-O(3-COOH-Ph))])K([AEEA-AEEA-AEEA-AEEA-γGlu-Decanoyl(10-O(3-COOH-Ph))]) [GLP-1 derivative of Example 28]					173 nM	12 pM	25 pM
H[Aib]EGTFTSDVSSYLEEQAAREFIAWLVRGK([AEEA-AEEA-γGlu-Dodecanoyl(12-OPh(4-COOH))])K([AEEA-AEEA-γGlu-Dodecanoyl(12-OPh(4-COOH))]) [GLP-1 derivative of Example 26]					360 nM	1.5 pM	124 pM
H[Aib]EGTFTSDVSSYLEEQAAREFIAWLVRGK([AEEA-AEEA-γGlu-C14 diacid])K([AEEA-AEEA-γGlu-C14 diacid]) [GLP-1 derivative of Example 5]					144 nM	1.1 pM	22 pM
H[Aib]EGTFTSDVSSYLEEQAAREFIAWLVRGK([AEEA-AEEA-AEEA-γGlu-C14 diacid])K([AEEA-AEEA-AEEA-γGlu-C14 diacid]) [GLP-1 derivative of Example 12]					70 nM	1.2 pM	10 pM
